# From IntAct's records for PubMed 21262861
# Target: sox6_human SOX6 (UniProt P35712)
# Sequence (P35712 whole entry): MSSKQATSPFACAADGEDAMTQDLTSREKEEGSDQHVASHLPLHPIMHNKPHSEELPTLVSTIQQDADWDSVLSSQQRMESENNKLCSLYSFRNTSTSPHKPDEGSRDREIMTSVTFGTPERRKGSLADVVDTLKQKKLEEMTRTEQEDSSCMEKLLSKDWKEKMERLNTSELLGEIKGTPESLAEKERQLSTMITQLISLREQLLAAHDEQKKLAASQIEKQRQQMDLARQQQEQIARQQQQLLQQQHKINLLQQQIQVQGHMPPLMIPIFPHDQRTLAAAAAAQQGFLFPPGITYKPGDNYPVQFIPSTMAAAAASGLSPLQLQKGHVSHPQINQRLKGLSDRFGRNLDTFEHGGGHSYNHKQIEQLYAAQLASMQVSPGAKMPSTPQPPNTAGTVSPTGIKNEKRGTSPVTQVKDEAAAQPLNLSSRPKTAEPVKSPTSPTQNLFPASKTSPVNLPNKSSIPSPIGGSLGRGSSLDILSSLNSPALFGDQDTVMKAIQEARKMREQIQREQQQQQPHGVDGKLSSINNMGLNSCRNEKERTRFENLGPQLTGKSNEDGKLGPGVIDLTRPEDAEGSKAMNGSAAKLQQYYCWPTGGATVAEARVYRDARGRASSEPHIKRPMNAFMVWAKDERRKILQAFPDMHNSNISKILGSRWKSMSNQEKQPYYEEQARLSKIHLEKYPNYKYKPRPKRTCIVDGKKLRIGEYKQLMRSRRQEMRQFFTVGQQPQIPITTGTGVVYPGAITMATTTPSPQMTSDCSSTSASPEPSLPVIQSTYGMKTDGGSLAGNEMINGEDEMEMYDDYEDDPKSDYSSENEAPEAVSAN
# Short stature homeobox protein (Homo sapiens), O15266 L132V, sequence (O15266 whole entry L132V): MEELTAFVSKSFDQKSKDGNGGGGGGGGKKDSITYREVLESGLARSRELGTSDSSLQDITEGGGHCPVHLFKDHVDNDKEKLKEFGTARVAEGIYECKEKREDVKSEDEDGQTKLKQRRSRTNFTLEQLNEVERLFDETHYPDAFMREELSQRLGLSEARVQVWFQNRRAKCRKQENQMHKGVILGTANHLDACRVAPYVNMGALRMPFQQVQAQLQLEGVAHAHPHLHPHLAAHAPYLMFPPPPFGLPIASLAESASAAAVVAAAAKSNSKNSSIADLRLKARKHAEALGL
# Short stature homeobox protein (Homo sapiens), O15266 A233E, sequence (O15266 whole entry A233E): as the sequence (O15266 whole entry L132V) above, with V132L, A233E counted along it
# Short stature homeobox protein (Homo sapiens), O15266 K116E, sequence (O15266 whole entry K116E): as the sequence (O15266 whole entry L132V) above, with K116E, V132L counted along it
# Short stature homeobox protein (Homo sapiens), O15266 R168Y, sequence (O15266 whole entry R168Y): as the sequence (O15266 whole entry L132V) above, with V132L, R168Y counted along it
# Short stature homeobox protein (Homo sapiens), O15266 D278A, sequence (O15266 whole entry D278A): as the sequence (O15266 whole entry L132V) above, with V132L, D278A counted along it
# Short stature homeobox protein (Homo sapiens), O15266 A170P, sequence (O15266 whole entry A170P): as the sequence (O15266 whole entry L132V) above, with V132L, A170P counted along it
# Short stature homeobox protein (Homo sapiens), O15266 R173C, sequence (O15266 whole entry R173C): as the sequence (O15266 whole entry L132V) above, with V132L, R173C counted along it
# Short stature homeobox protein (Homo sapiens), O15266 R195P, sequence (O15266 whole entry R195P): as the sequence (O15266 whole entry L132V) above, with V132L, R195P counted along it
row,Substance,effect of a mutation on the interaction
1,"Short stature homeobox protein (Homo sapiens), O15266 A233E",decreasing interaction
2,"Short stature homeobox protein (Homo sapiens), O15266 K116E",decreasing interaction
3,"Short stature homeobox protein (Homo sapiens), O15266 L132V",disrupting interaction

# Other lines, results leading:
row,effect of a mutation on the interaction,Substance
1,disrupting interaction,"Short stature homeobox protein (Homo sapiens), O15266 A170P"
2,decreasing interaction,"Short stature homeobox protein (Homo sapiens), O15266 D278A"
3,decreasing interaction,"Short stature homeobox protein (Homo sapiens), O15266 R168Y"
4,decreasing interaction,"Short stature homeobox protein (Homo sapiens), O15266 R173C"
5,decreasing interaction,"Short stature homeobox protein (Homo sapiens), O15266 R195P"
